The results in this text go back to the supplement of paper PMC9112550, “Optimization of the antimicrobial peptide Bac7 by deep mutational scanning” (BMC Biology, 2022).

The test system of the data set is Escherichia coli TOP10. Briefly: shrunken log2 fold change of peptide-encoding DNA abundance (4.5 h post-induction vs induction); higher = less antimicrobial activity (less host growth inhibition). As to conditions: time post-induction: 4.5 h; library: site-saturation at positions 5, 18, 19, 20.
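Note: peptides expressed intracellularly from a pBAD plasmid library in pooled LB shake-flask culture, induced with 0.3% L-arabinose, DNA abundance read by NGS, three biological replicates, DESeq2 with apeglm shrinkage.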

With RRIRNRPPRLPRPRPRPVPPPRP, the “shrunken log2 fold change” value is 0.234.

In the case of RRIRTRPPRLPRPRPRPINKPRP, the “shrunken log2 fold change” value was -0.322.

Turning to RRIRCRPPRLPRPRPRPMEGPRP, the “shrunken log2 fold change” value is -0.00776.

As for RRIRERPPRLPRPRPRPNQHPRP, the “shrunken log2 fold change” value was -0.228.

As to RRIRQRPPRLPRPRPRPGETPRP, the “shrunken log2 fold change” value stood at 0.0131.

As to RRIRHRPPRLPRPRPRPMHPPRP, the “shrunken log2 fold change” value is -0.193.

In the case of RRIRGRPPRLPRPRPRPHGYPRP, the “shrunken log2 fold change” value is -0.0362.

Take RRIRLRPPRLPRPRPRPLMQPRP: the “shrunken log2 fold change” value is -0.0571.

In the case of RRIRFRPPRLPRPRPRPLFHPRP, the “shrunken log2 fold change” value was -0.632.

Regarding RRIRMRPPRLPRPRPRPWTEPRP, the “shrunken log2 fold change” value came to 0.0475.

Consider RRIRKRPPRLPRPRPRPYCFPRP, for which the “shrunken log2 fold change” value was -0.258.

For RRIRRRPPRLPRPRPRPRMVPRP, the “shrunken log2 fold change” value came to 0.218.

On to RRIRPRPPRLPRPRPRPSWCPRP, for which the “shrunken log2 fold change” value was 0.108.

Turning to RRIRVRPPRLPRPRPRPPISPRP, the “shrunken log2 fold change” value was 0.0369.

Regarding RRIRFRPPRLPRPRPRPPWHPRP, the “shrunken log2 fold change” value is 0.087.

Take RRIRKRPPRLPRPRPRPNYQPRP: the “shrunken log2 fold change” value was -0.0219.

Regarding RRIRIRPPRLPRPRPRPATEPRP, the “shrunken log2 fold change” value stood at 0.421.

RRIRERPPRLPRPRPRPTYKPRP: the “shrunken log2 fold change” value is -0.579.

As for RRIRVRPPRLPRPRPRPTSCPRP, the “shrunken log2 fold change” value was determined as 0.961.

For RRIRMRPPRLPRPRPRPKIEPRP, the “shrunken log2 fold change” value stood at 0.367.

For RRIRFRPPRLPRPRPRPQWVPRP, the “shrunken log2 fold change” value was -0.053.

Turning to RRIRWRPPRLPRPRPRPGKQPRP, the “shrunken log2 fold change” value was determined as 0.151.

As to RRIRMRPPRLPRPRPRPFHDPRP, the “shrunken log2 fold change” value is -0.14.

Take RRIRIRPPRLPRPRPRPWPLPRP: the “shrunken log2 fold change” value was -0.122.

On to RRIRERPPRLPRPRPRPKNWPRP, for which the “shrunken log2 fold change” value was determined as 1.59.

As to RRIRSRPPRLPRPRPRPYDQPRP, the “shrunken log2 fold change” value is -0.21.

With RRIRMRPPRLPRPRPRPEFMPRP, the “shrunken log2 fold change” value amounted to 0.656.

Turning to RRIRMRPPRLPRPRPRPQYWPRP, the “shrunken log2 fold change” value is -0.194.

On to RRIRLRPPRLPRPRPRPELFPRP, for which the “shrunken log2 fold change” value stood at 0.303.

On to RRIRNRPPRLPRPRPRPQINPRP, for which the “shrunken log2 fold change” value was -0.181.

With RRIRDRPPRLPRPRPRPHTHPRP, the “shrunken log2 fold change” value was -0.0285.

For RRIRERPPRLPRPRPRPKIFPRP, the “shrunken log2 fold change” value is 0.0686.

Consider RRIRCRPPRLPRPRPRPNPEPRP, for which the “shrunken log2 fold change” value worked out at 0.448.

Take RRIRERPPRLPRPRPRPCCIPRP: the “shrunken log2 fold change” value is 0.0508.

For RRIRTRPPRLPRPRPRPEKHPRP, the “shrunken log2 fold change” value is 0.0385.

As to RRIRFRPPRLPRPRPRPQAAPRP, the “shrunken log2 fold change” value amounted to 1.04.

Regarding RRIRHRPPRLPRPRPRPSWDPRP, the “shrunken log2 fold change” value was -0.205.

Regarding RRIRPRPPRLPRPRPRPYPYPRP, the “shrunken log2 fold change” value was -0.124.

Take RRIRGRPPRLPRPRPRPHFFPRP: the “shrunken log2 fold change” value was 0.328.

As to RRIRARPPRLPRPRPRPPDKPRP, the “shrunken log2 fold change” value was 0.572.

In the case of RRIRPRPPRLPRPRPRPKTQPRP, the “shrunken log2 fold change” value is -0.02.

In the case of RRIRRRPPRLPRPRPRPLPTPRP, the “shrunken log2 fold change” value came to 0.729.

Consider RRIRSRPPRLPRPRPRPSALPRP, for which the “shrunken log2 fold change” value was -0.0202.

As for RRIRIRPPRLPRPRPRPNFNPRP, the “shrunken log2 fold change” value is -0.745.

On to RRIRRRPPRLPRPRPRPIFIPRP, for which the “shrunken log2 fold change” value was -0.0166.

For the sequence RRIRARPPRLPRPRPRPQFSPRP, the “shrunken log2 fold change” value was found to be 0.0761.

RRIRCRPPRLPRPRPRPSWEPRP: the “shrunken log2 fold change” value was -0.0769.

In the case of RRIRGRPPRLPRPRPRPYDLPRP, the “shrunken log2 fold change” value is -0.511.

With RRIRKRPPRLPRPRPRPDDMPRP, the “shrunken log2 fold change” value turned out to be 2.74.

For RRIRWRPPRLPRPRPRPKKWPRP, the “shrunken log2 fold change” value was 0.254.

In the case of RRIRARPPRLPRPRPRPYYCPRP, the “shrunken log2 fold change” value was -0.331.

Take RRIRDRPPRLPRPRPRPYGRPRP: the “shrunken log2 fold change” value is -0.0901.

Take RRIRCRPPRLPRPRPRPGKWPRP: the “shrunken log2 fold change” value worked out at 0.107.

For RRIRTRPPRLPRPRPRPNCPPRP, the “shrunken log2 fold change” value is -0.0894.

As to RRIRMRPPRLPRPRPRPSLFPRP, the “shrunken log2 fold change” value was 0.136.

For RRIRYRPPRLPRPRPRPFAWPRP, the “shrunken log2 fold change” value is -0.0365.

For the sequence RRIRDRPPRLPRPRPRPRYYPRP, the “shrunken log2 fold change” value was -0.175.

Regarding RRIRARPPRLPRPRPRPMLYPRP, the “shrunken log2 fold change” value was 0.249.

For the sequence RRIRQRPPRLPRPRPRPEIEPRP, the “shrunken log2 fold change” value was -0.00695.

Consider RRIRNRPPRLPRPRPRPDNRPRP, for which the “shrunken log2 fold change” value was -0.0135.

With RRIRCRPPRLPRPRPRPPDFPRP, the “shrunken log2 fold change” value is -0.00542.

Turning to RRIRTRPPRLPRPRPRPVHDPRP, the “shrunken log2 fold change” value is -0.0747.
